# Measured values published in the supplement of paper PMC12042874.
# ± gives the uncertainty stated by the source.
# Assay: amyloid nucleation score (Sup35N fusion, yeast selection) (log enrichment); library NNK1; higher = more nucleation; inactive = no reads after selection
# Outline: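 Growth for 7 days at 30°C on medium lacking adenine and uracil followed a 24-hour induction with 100 μM copper sulfate of psi-negative yeast expressing peptides of 20 random codons fused to Sup35N. Input and output plasmid inserts were sequenced with Illumina, and sequences with under 100 input reads were excluded. Nucleation score is the DiMSum log enrichment of output over input reads, centred on the mode score of non-aggregating sequences.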
row,Substance,amyloid nucleation score
1,RLKHDWWITVCLYRVQLNTV,1.59 ± 0.55
2,NRRMFV,-1.13 ± 0.48
3,TRCIAVFIGD,2.52 ± 0.11
4,MGFVGPENAKDYCSRGV,0.357 ± 0.5
5,IGTGCSDILRIWRECVNLRG,1.5 ± 0.56
6,WLSHGIEVVVHKTSSVSYWR,-0.796 ± 1.1
7,CLVWLGNNFLDSLWGEGGRA,-0.291 ± 0.38
8,NYVEVINNFHAFVRVLFEIL,4.09 ± 0.15
9,TSFMEIVVLDAVGRQRRSSV,-0.106 ± 0.49
10,GRSGCCWMS,2.77 ± 0.19
11,WSCKVMRVYRP,0.295 ± 0.4
12,YMGMLA,2.34 ± 0.12
13,PNDSYNGL,-0.421 ± 0.46
14,YLYVGS,-0.352 ± 0.37
15,IQQTLPQRYMYNEIRPCSSL,0.502 ± 0.19
16,QTFSNPFFVLYLSNRLIPKV,1.82 ± 0.29
17,SWRSSTCSALVQGQYKA,-0.051 ± 0.32
18,VQCFLAQRSVDSGATELIIV,0.114 ± 0.59
19,IKMDFTFICIRVRGV,0.343 ± 1.4
20,MQVVKIGKLFG,-0.112 ± 0.39
21,RFMSTSLFLMVSNELLSPLM,1.27 ± 0.16
22,EYVRRKFQPSCTVMRYCFAR,0.006 ± 0.77
23,PLLGASSRYDHAMLCGNRTF,0.127 ± 0.33
24,TYTVGHYVAFWSRRVKSNES,0.392 ± 0.67
25,MEGRVMGKRVAVY,-0.155 ± 0.59

row,Substance,amyloid nucleation score
1,EIAYVLICRHLLECIRA,inactive
2,RSFWYDHGIRVGLRLYNCSM,inactive
3,VCIIIVYRIYLSYMCPISY,-0.463 ± 0.37
4,LNISQRRIYFWSYWLHHITY,-0.282 ± 0.6
5,NIKDRILYNVYMRGMCIYCL,6.137 ± 0.053
6,RRVLSRGSAVSWALSSGGD,-0.586 ± 0.46
7,YVMAVI,1.64 ± 0.5
8,GHQILDSCLANCYGGCLIAC,0.652 ± 0.61
9,IDNMGT,2.4 ± 0.12
10,VWLEYECKVLVLHYCFCRVR,0.72 ± 0.61
11,MAICSGMTSWAVLLEVWN,0.504 ± 0.57
12,GSSCNSLPFYVRDRFNTPCV,inactive
13,NFRKL,inactive
14,LDYSSRSPLTDLST,0.041 ± 0.65
15,RLGPYSATWFVGKGKREGGV,0.571 ± 0.55
16,RRYHGGDWSLLVNQLN,0.374 ± 0.23
17,DILQDFIGQPLRSN,1.04 ± 0.6
18,RMEQSCWMTSECRRWKGVWL,0.827 ± 0.44
19,STLLYGLLAYWTYGFAWLFF,inactive
20,ICYTLTMVMAGVEAGGATLV,0.294 ± 0.95
21,PLLMGEEFRYSFSLCYNTSS,-0.548 ± 1.7
22,RRGVV,0.659 ± 0.93
23,WVVCVIDEGSSTFFINI,-0.556 ± 1.4
24,SWGFSMLRMEEWRMPVLFYS,-0.446 ± 0.58
25,VLGDSARVCSGDGV,0.494 ± 0.74

row,Substance,amyloid nucleation score
1,VGLNMLKNFNPDLSAKDITH,-0.176 ± 1.1
2,YTFLYSPTHCPRENHPNSVL,0.211 ± 0.61
3,AISTCQKRVYFWVQSGFVT,-0.072 ± 0.2
4,YLREVYFFMGVWDRK,0.15 ± 0.44
5,LHCARGLVRRNMSSSLRWLA,inactive
6,FYRNIIKINMMVLWISWGHV,0.185 ± 0.79
7,TWPVLSDGQAGELRVRMGSA,0.741 ± 0.88
8,QSAAFIIDLLTVFRKMEEVM,-0.666 ± 0.66
9,FAPMILRPVLSQMAWWKDIA,-0.108 ± 0.52
10,RNHDANFPCRVDGPLQSTVR,0.135 ± 0.4
11,IYPKLDCYVAVVLLDLSGVT,inactive
12,FCNRFRCSGSVRWLREVEYM,0.291 ± 0.46
13,ENYKVGACVYLPWPFHENTG,-0.096 ± 0.56
14,GVDKEINLFMYRPYRFVSGE,1.1 ± 0.24
15,TKMCF,0.105 ± 0.41
16,GTNCHL,-0.036 ± 0.79
17,KDISITCLLYPKNHSGYSGT,0.058 ± 0.25
18,SYGSVCNDNQSNRRYVHIHM,2.89 ± 0.22
19,REEAVSVGHSRFGFWIVFGG,-0.264 ± 0.36
20,LNCRGVLDRTKSRVSHNNES,3.38 ± 0.18
21,VRNWWDDNYSFTHAYLSTDG,1.01 ± 0.66
22,RIYLRFYLIIR,1.07 ± 0.85
23,SFHLSQFYKNTHMWLIVFES,inactive
24,IYLSNAYSTTYSLKFSFM,6.14 ± 0.071
25,FVETS,0.198 ± 0.29

row,Substance,amyloid nucleation score
1,LGTSEKGNRKNR,inactive
2,SLGGVGRTTHNILCEADSGA,1.44 ± 0.38
3,FPDYQVLLQCYLN,0.418 ± 0.38
4,TAYVLLWTRTVFVFPEVHTF,0.887 ± 0.43
5,SICTCKWYVSVWWAIWRINN,1.59 ± 0.42
6,LAKGGPL,-0.813 ± 0.54
7,LLIVYYNVDITQCRWFTELC,-0.16 ± 0.58
8,FEYRRNLKCVSFFWSVGINR,-0.436 ± 0.4
9,YCDSWSVSFLICRSPFQNYM,-1.12 ± 0.56
10,TVMTRRSLWRTVGLNWVMLV,1.53 ± 0.19
11,KCSFNLTLIVF,1.77 ± 0.15
12,LYLVILVELMVYSKWCIKSP,0.414 ± 0.36
13,PFSGFLCSRVCAMVDKTLFS,inactive
14,HQIYVLATETNSPMLRWKLQ,0.879 ± 0.98
15,QCKRFCCIWVCNADFVAGAW,7.745 ± 0.045
16,SFSNVRNI,-1.52 ± 0.81
17,SNGCPFDTIDQAKVGTVV,0.861 ± 0.68
18,LSMCYIFCDARYLYSQCFGV,4.38 ± 0.12
19,ILLMFYRCSKDILLIRSTDF,0.059 ± 0.27
20,HGAFMVPT,0.895 ± 0.79
21,LCLVFVNLVLQRYGIASWYT,0.531 ± 0.3
22,KYRASYRNHRDMGDSAVYGY,0.044 ± 0.26
23,GMLNIDSVPDTYGLSQPVVP,-0.498 ± 0.57
24,PHQPRILM,-0.387 ± 0.36
25,LCLSCLWMGETRPRSNPVNL,6.24 ± 0.068

row,Substance,amyloid nucleation score
1,HNFKCHLKSCKVSNFN,-1.02 ± 2.4
2,RCYSVRCTFQVDYARIHANE,1.99 ± 0.17
3,CGRVDEFKALLYKILRDYNW,-0.141 ± 0.23
4,LRLLSNVKWTKCS,0.367 ± 0.97
5,FLGLLLCCLVRAPLPFGMRA,-0.459 ± 0.56
6,KHDRHAKTTSLYRKPGKLRR,0.4 ± 1.1
7,MRFKFMALGCEVLILGGFGS,3.72 ± 0.16
8,FSRPWWRSWHSFFSHDEKTI,0.282 ± 0.69
9,VRECRSMERTTHQVCTWGGA,0.078 ± 1.4
10,IEIGSSF,0.118 ± 0.6
11,MVMNTKCE,-0.643 ± 0.55
12,SIYRYLCGRFDCLWILPCEH,1.29 ± 0.84
13,IWLCVYNGM,4.98 ± 0.12
14,KSLQRWRDRCRDHVLSAS,-0.083 ± 1
15,YGSMVMDVEAR,-0.001 ± 0.45
16,YWWRWSVSI,0.386 ± 0.33
17,LLNVVCRARVWS,-0.241 ± 0.32
18,YGVRFGVFLSTCLNFSGEYR,-0.178 ± 0.42
19,SHTLHDAIYGVDVQPFDTRV,0.102 ± 0.66
20,VLDGNKLQSRSLSCSSWYLS,4.03 ± 0.12
21,ICDYPIVMRKYPVS,-1.68 ± 1.4
22,MKLRVDLFSYGRCLCEQ,-0.021 ± 0.25
23,YSTRPKVPFVRKVFIIGL,0.174 ± 0.43
24,TYYVRCLGLLGLNPTFRSPR,0.365 ± 0.36
25,YGHCFDFGVRTVLFNGFSLI,1.29 ± 0.84

row,Substance,amyloid nucleation score
1,LRWPFCQGLYTYLCSLT,1.39 ± 0.47
2,MCRLTPRIITDY,0.244 ± 0.28
3,GYTTLTQGL,-0.513 ± 1.2
4,MLTPDLSSDLDILRPTSPLT,0.879 ± 0.51
5,LWFINVLNK,5.103 ± 0.049
6,GRSSD,-0.164 ± 0.84
7,CELSDSVNGNTFNMN,2.18 ± 0.49
8,KGTAPGNSGGERVVMNSHDL,2.61 ± 0.22
9,VCNWVSLGVALHRALEQLGI,-1.32 ± 0.92
10,PMVRMQYDPYIKTMCVVWMR,-0.195 ± 1.2
11,LHVISGFYKCRTKRL,0.862 ± 0.32
12,SYESSLNGRISFRNGERLLC,0.115 ± 0.42
13,TCCRRVLSMEQQDTLVYWQY,-0.585 ± 1.7
14,TGDLVTLGGVGL,0.309 ± 0.42
15,NACDCQPMFVMQWYRRVEPR,-0.167 ± 0.53
16,VNGTG,-0.252 ± 0.97
17,NYYDSRFGLHIVLELWVARL,0.431 ± 0.2
18,RWVTLCRWVNVSSDGELGVR,0.993 ± 0.35
19,VSEFGFIVF,-0.315 ± 0.76
20,LSLCSLYNSWQGM,0.492 ± 0.4
21,LSMPMGNLEPL,-0.277 ± 0.19
22,IWYSVWNSNGFSHSRHGQQR,inactive
23,KSFNVLCHIAVVPNRWVGRT,2.49 ± 0.13
24,YYVMRYDASLYDKRKERVFG,0.851 ± 0.39
25,ALCDYWDIA,inactive

row,Substance,amyloid nucleation score
1,SQCSSLIHAIEMDRFVF,0.276 ± 0.23
2,EFRSSVDWNAFMKLLVCTKH,0.021 ± 0.93
3,IEQMCTHVNYFGD,-0.548 ± 0.86
4,VYGVPWYGLSYLFCTSVDID,6.252 ± 0.059
5,SYYNSVWTRYECAVVWT,0.413 ± 1.1
6,GNCSMSVGATLEGLMVRVHI,0.027 ± 0.68
7,CGYLCNGKSGERSGIFGAHQ,-0.088 ± 0.39
8,SKVCE,0.085 ± 0.66
9,RFVLKYSSFFMFTIRWCVVV,-0.027 ± 0.44
10,YVSAGWVYRSYFGIIFILRN,-0.873 ± 1.1
11,RRYCDTTVFHGYSVSCRAYG,-0.842 ± 0.74
12,TLLPARGGKKAR,0.256 ± 0.49
13,SEFASLERSHSHLYMWEFSL,0.171 ± 0.63
14,APNTEMGFEGLRELQVLPVV,-0.854 ± 1.1
15,GYILPLLDVDYVKSVMICFW,3.8 ± 0.094
16,FSLFTWSWFR,0.625 ± 0.42
17,YTRFVKGYTRNRFSRDTSAV,-0.084 ± 0.28
18,VKLGDNNTRQLTYSGS,1.71 ± 0.73
19,TYERICGCMFCLTCSSDAF,-0.19 ± 0.71
20,AYWGHITGKVKFMEAAPLDV,1.63 ± 0.73
21,IRLRMWDHRWSTKGGSHTFL,-1.36 ± 0.95
22,YWCMLARSLDDEGLFWRTGG,-0.38 ± 0.33
